From patent US11999794B2, “Human mesothelin chimeric antigen receptors and uses thereof” (Novartis AG, priority 2013, dated 2024)
Entries after “also recorded” stand apart in the source; their conditions may differ.

Tests used:
Ovcar8 = Ovcar8 xenograft model (Example 8); assay type: in vivo, NSG mice; settings: OVCAR8-mcherry; 10×10^6 T cells, about 4×10^6 CART cells
Protocol: Anti-tumor activity of CART-MSLN was assessed in vivo in an Ovcar8 xenograft model. 10×10^6 Ovcar8 cells were implanted subcutaneously on day 0 in NSG mice. At day 14, 2×10^6 CART cells (CARTs expressing M5, M11, M17, M21, SS1, and CD19, or untransduced cells; 10×10^6 total T cells) in a 100 μl dose was administered intravenously. Mice and tumors were monitored for about 40 days after tumor cell implantation.
A second in vivo xenograft experiment was performed to assess the anti-tumor activity of a second set of CART-MSLN cells. 10×10^6 OVCAR8-mcherry cells were injected into NSG mice. Once tumors were 150-250 mm^2, mice were randomized into treatment groups. CARTs expressing M12, M14, M16, M23, ss1, CD19, or untreated cells were injected at a dose of 10×10^6 T cells in 100 μl. About 40% of T cells were expressing CAR, and therefore at the administered dosage, about 4×10^6 CART cells were delivered to each animal.

[1] = target: T1, biotinylated mesothelin ECD (Homo sapiens, UniProt Q13421); test: SPR relative epitope binning in comparison to SS1; assay type: binding; settings: 50 nM SS1 captured first, then scFv at 100 nM
T1 construct: made in house; host or cells: HEK293F (transient)
T1 sequence (Q13421 with tags, fused parts or gaps): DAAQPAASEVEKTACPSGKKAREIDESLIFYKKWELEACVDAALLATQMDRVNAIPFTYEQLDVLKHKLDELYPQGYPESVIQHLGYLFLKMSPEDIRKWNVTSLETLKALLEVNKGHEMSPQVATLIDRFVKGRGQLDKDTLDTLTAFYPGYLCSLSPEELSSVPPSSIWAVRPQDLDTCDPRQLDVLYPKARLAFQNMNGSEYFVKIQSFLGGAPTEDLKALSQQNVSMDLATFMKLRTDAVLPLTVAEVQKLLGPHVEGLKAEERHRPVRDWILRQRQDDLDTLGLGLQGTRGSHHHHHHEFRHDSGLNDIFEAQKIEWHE
Protocol: In embodiments, the competition assay is an SPR-based assay. Briefly, the antigen, e.g., human mesothelin, is immobilized on a surface. Through a microflow system, a reference antibody is injected over the antigen layer. Upon binding of the reference antibody to the antigen, an increase in signal, typically expressed in response units (RU) is detected, e.g., reference signal. After a desired time, a test antibody is injected over the antigen layer. If the test antibody binds to a different region or epitope of the antigen, then an additional increase in signal is detected, e.g., a 5% or more, 10% or more, 15% or more, 20% or more, 25% or more, 30% or more, 35%, or more, 40% or more, 45% or more, 50% or more, 55% of more, 60% or more, 65% or more, 70% or more, 75% or more, 80% or more, 85% or more, 90% or more, or 95% or more increase in signal, e.g., RU, as compared to the highest signal detected upon binding of the reference antibody, e.g., the reference signal. If the test antibody binds to the same region or epitope of the antigen, then little or no increase in signal, e.g., RU, will be detected, e.g., less than 20%, less than 15%, less than 10%, less than 5%, less than 4%, less than 3%, less than 2%, or less than 1% increase in signal, e.g., RU, as compared to the highest signal detected upon binding of the reference antibody, e.g., the reference signal. When using this SPR-based competition assay, an antibody is said to compete with the reference antibody when less than 20%, less than 15%, less than 10%, less than 5%, less than 4%, less than 3%, less than 2%, or less than 1% increase in signal, e.g., RU, is detected when compared to the reference signal detected upon binding of the reference antibody to the antigen. An antibody is said to not compete, or compete poorly, with a reference antibody when a 5% or more, 10% or more, 15% or more, 20% or more, 25% or more, 30% or more, 35%, or more, 40% or more, 45% or more, 50% or more, 55% of more, 60% or more, 65% or more, 70% or more, 75% or more, 80% or more, 85% or more, 90% or more, or 95% or more increase in signal, e.g., RU, is detected when compared to the reference signal detected upon binding of the reference antibody to the antigen.
To determine the relative binding epitope of each of the scFvs in comparison to SS1, 50 nM SS1 was captured by biotinylated mesothelin ECD immobilized on a streptavidin sensor chip at a contact time of 180 seconds resulting in a relative density of 70 RU. Purified scFv at 100 nM (M5, M11, M12, M14, M16, M17, M21, or M23) was then immediately injected over the chip to minimize dissociation of the SS1/mesothelin complex. Binding of the secondary scFv was monitored for 270 seconds.

[2] = Size exclusion chromatography (oligomerization state of expressed scFvs); assay type: physicochemical; settings: purified scFv
Protocol: Size exclusion chromatography was performed to determine the oligomerization states of the expressed scFvs. 25 μg each was injected onto a TSKGel Super SW3000 4.6 mm×300 mm column (Tosoh Bioscience) heated to 35° C. The scFvs were eluted at 0.3 mL/min in 750 mM arginine, 1 mM EDTA, 20 mM sodium phosphate, 250 mM sodium chloride, pH 7.2; the UV absorbance was monitored at 280 nm.

[3] = target: T1, biotinylated mesothelin ECD; test: Surface plasmon resonance (Biacore T200) binding affinity of purified scFvs; settings: for Kd: 1:1 Binding or Steady State Affinity fit; for ka / kd: 1:1 Binding fit
Protocol: Binding affinity of purified scFvs was measured on a Biacore T200 system. Briefly, recombinant human biotinylated mesothelin ECD was immobilized on a streptavidin (SA) sensor chip surface at a density of 150 RU. Purified scFv was injected over the chip under constant flow rate at three-fold serial dilutions. Association and dissociation rates of the protein complex were monitored for 270 seconds and 400 seconds, respectively. Double referencing was performed against a blank immobilized flow cell and a buffer blank. Affinity was determined with a Langmuir 1:1 binding model when possible, for those scFVs where accurate fitting was not possible due to fast on and off rates, the steady state model was used.

Ovcar3 = test: Luciferase-based killing assay; assay type: cell-based, human
Protocol: The ability for the CART-MSLN to target and kill tumor cells was also assessed in vitro. A luciferase-based assay was used, with tumor cell lines expressing luciferase reporters. Target cells (tumor cells) were plated at 20,000 targets/well. CART-MSLN were added at varying effector:target ratios, from 10:1, 5:1, 2.5:1, and 1:1. The cells were cultured for 20 hours, and the luminescence of each well was detected to determine the percentage of target cells killed. Luciferase-expressing Ovcar3 (ovarian cancer) and U87 mg (glioblastoma) cell lines were used as target cells.

B1: M12: human anti-mesothelin scFv SEQ ID NO: 50; full CAR SEQ ID NO: 74 (protein)
scFv: QVQLVQSGAEVKKPGASVKVSCKASGYTFTGYYMHWVRQAPGQGLEWMGRINPNSGGTNYAQKFQGRVTMTTDTSTSTAYMELRSLRSDDTAVYYCARTTTSYAFDIWGQGTMVTVSSGGGGSGGGGSGGGGSGGGGSDIQLTQSPSTLSASVGDRVTITCRASQSISTWLAWYQQKPGKAPNLLIYKASTLESGVPSRFSGSGSGTEFTLTISSLQPDDFATYYCQQYNTYSPYTFGQGTKLEIK
effect on tumor growth, second xenograft experiment (Ovcar8): did not have an effect on tumor growth
relative epitope binning against SS1 on human mesothelin [1]: Competitive binding; also recorded: competitive binders with SS1
% Monomer (SEC) [2]: 70%
Kd [3]: 307 nM

B2: M17: human anti-mesothelin scFv SEQ ID NO: 55; full CAR SEQ ID NO: 79 (protein)
scFv: EVQLVESGGGLVQPGRSLRLSCAASGFTFDDYAMHWVRQAPGKGLEWVSGISWNSGSTGYADSVKGRFTISRDNAKNSLYLQMNSLRAEDTALYYCAKDSSSWYGGGSAFDIWGQGTMVTVSSGGGGSGGGGSGGGGSSSELTQDPAVSVALGQTVRITCQGDSLRSYYASWYQQKPGQAPVLVIYGKNNRPSGIPDRFSGSSSGNTASLTITGAQAEDEADYYCNSRGSSGNHYVFGTGTKVTVL
killing of target tumor cells (Ovcar3; E:T 10:1 to 1:1, 20 hours, FIG. 16A): performed similarly well in killing target tumor cells
specific killing within the panel of human meso CARs (Ovcar3; FIGS. 17A and 17B): highest specific killing of Ovcar3 cells
relative epitope binning against SS1 on human mesothelin [1]: Competitive binding; also recorded: competitive binders with SS1
% Monomer (SEC) [2]: >98%
ka [3]: 522000 M⁻¹ s⁻¹
kd [3]: 0.0145 s⁻¹
Kd [3]: 27.8 nM

B3: M14: human anti-mesothelin scFv SEQ ID NO: 52; full CAR SEQ ID NO: 76 (protein)
scFv: QVQLVQSGAEVRAPGASVKISCKASGFTFRGYYIHWVRQAPGQGLEWMGIINPSGGSRAYAQKFQGRVTMTRDTSTSTVYMELSSLRSDDTAMYYCARTASCGGDCYYLDYWGQGTLVTVSSGGGGSGGGGSGGGGSGGGGSDIQMTQSPPTLSASVGDRVTITCRASENVNIWLAWYQQKPGKAPKLLIYKSSSLASGVPSRFSGSGSGAEFTLTISSLQPDDFATYYCQQYQSYPLTFGGGTKVDIK
effect on tumor growth, second xenograft experiment (Ovcar8): did not have an effect on tumor growth
relative epitope binning against SS1 on human mesothelin [1]: Competitive binding; also recorded: competitive binders with SS1
% Monomer (SEC) [2]: 74.5%
ka [3]: 2.75e+06 M⁻¹ s⁻¹
kd [3]: 0.00251 s⁻¹
Kd [3]: 0.9 nM

B4: M21: human anti-mesothelin scFv SEQ ID NO: 59; CDRs in Tables 4 and 5 (protein)
scFv: QVQLVQSWAEVKKPGASVKVSCKASGYTFTSYYMHWVRQAPGQGLEWMGIINPSGGSTSYAQKFQGRVTMTRDTSTSTVYMELSNLRSEDTAVYYCARSPRVTTGYFDYWGQGTLVTVSSGGGGSGGGGSGGGGSGGGGSDIQLTQSPSTLSASVGDRVTITCRASQSISSWLAWYQQKPGKAPKLLIYKASSLESGVPSRFSGSGSGTEFTLTISSLQPDDFATYYCQQYSSYPLTFGGGTRLEIK
relative epitope binning against SS1 on human mesothelin [1]: Competitive binding; also recorded: competitive binders with SS1
% Monomer (SEC) [2]: >98%
Kd [3]: 110 nM
